Results from article PMC12637021, “Talin–tensin3 interactions regulate fibrillar adhesion formation and tensin3 phase separation” (The Journal of Cell Biology, 2025).
Entries after “also recorded” stand apart in the source; their conditions may differ.

How the values were obtained:
TLNKO cells = experiment: cell spreading of TLNKO cells; assay type: cell-based; settings: tensin3 expressed alone in TLNKO cells
Experimental: (§1) Cells were fixed in 4% paraformaldehyde (PFA, Sigma-Aldrich), which had been prewarmed to 37°C for 15 min before being washed three times with PBS. For immunofluorescence staining, cells were permeabilized with 0.5% Triton X-100 (Sigma-Aldrich) at room temperature for 5 min before being washed three times with PBS. Blebbistatin (Tocris Bioscience) was diluted in dimethyl sulfoxide (Sigma-Aldrich) and used at a final concentration of 50 μM. The following primary antibodies were diluted in 1% bovine serum albumin (BSA, Sigma-Aldrich): mouse anti-α5 integrin (SNAKA51, 1:100, NBP2-50146; Novus Biologicals), rat anti-β1 integrin (9EG7, 1:200; 553715; BD Biosciences), mouse anti-FN (IST-9, 1:100, ab6328; Abcam), rabbit anti-tensin3 (1:200, HPA055338; Atlas), mouse anti-EEA1 (1:500, 68065-1-IG; Proteintech), mouse anti-LAMP1 (1:200, ab320851; Abcam), mouse anti-paxillin (349, 1:400, mab3060; Sigma-Aldrich), rabbit anti-talin1 (1:200, 82856-4-RR; Proteintech), mouse anti-vinculin (hVin1, 1:500, V9264; Sigma-Aldrich), rabbit anti-KANK2 (1:100, HPA015643; Sigma-Aldrich), rabbit anti-kindlin2 (1:100, 11453-1-AP; Proteintech), rabbit anti-GIT1 (1:200, 26247-1-AP; Proteintech), mouse anti-phosphotyrosine (4G10, 1:200, 05-321X; Sigma-Aldrich), rabbit anti-G3BP1 (1:600, 13057-2-AP; Proteintech), rabbit anti-TDP43 (1:400, 10782-2-AP; Proteintech), and rabbit anti-GIGYF1 (1:400, ab121784; Abcam). […]

U2OS TNS3KO cells [1] = experiment: adhesion stability under blebbistatin, U2OS TNS3KO cells; assay type: cell-based, human; settings: blebbistatin 50 µM
Experimental: as §1
(§2) Analysis of cell adhesion sites, FN fibrils, and LLPS condensates was performed using FIJI/ImageJ (version 1.54f) software ([Schindelin et al., 2012]). […] Prior to adhesion quantification, the images were background-subtracted using a rolling ball algorithm, followed by thresholding of adhesion sites and Analyse Particles functions in FIJI/ImageJ to quantify adhesions. Adhesion sites with sizes between 0.4 and 10 μm^2 were counted, except for adhesions in blebbistatin-treated cells, which were counted with sizes between 0.2 and 4 μm^2. […]

β1 integrin, TLNKO cells = experiment: β1 integrin activation by flow cytometry, TLNKO cells; assay type: cell-based
Experimental: To measure the level of β1 integrin activation, TLNKO cells were transfected in a 6-well plate for flow cytometry analysis. Cells were collected, washed, and resuspended in ice-cold staining buffer (1% BSA in PBS) before incubation with 9EG7 antibody (diluted 1:200 in staining buffer) for 1 h on ice. The cells were then washed three times with staining buffer. Alexa Fluor Plus 647 goat anti-rat (1:500 dilution in staining buffer, Invitrogen) secondary antibody was used to incubate the cells for 45 min on ice, before being washed twice with staining buffer and once with PBS. The cells were then fixed with 4% PFA for 15 min before a final wash with PBS. Flow cytometry analysis was performed using a Fortessa system (BD Biosciences) and FlowJo software.

NIH3T3 cells [2] = experiment: client protein recruitment to tensin3 condensates; assay type: cell-based, mouse; settings: co-expressed or endogenous
From the text: Since the observed tensin3 condensates were derived from adhesion sites in a talin-regulated mechanosensitive manner, we wondered whether these condensates contain other adhesion components or signaling molecules. To address this question, we examined a selection of cell–matrix adhesion proteins that have been reported by others to be present in LLPS condensates. These proteins include LIMD1 ([Wang et al., 2021]), kindlin2 ([Hsu et al., 2023]), talin ([Hsu et al., 2023]; [Litschel et al., 2024]), KANK ([Guo et al., 2023]), tensin1 ([Lee et al., 2023]), vinculin ([Litschel et al., 2024]), and GIT1 ([Zhu et al., 2020]). We added the actin regulatory RhoGAP DLC1 to this selection, as it is known to bind tensin ([Liao et al., 2006]; [Shih et al., 2015]), and the RNA regulatory protein GIGYF1, which we had previously identified alongside many of the aforementioned proteins in tensin BioID datasets ([Atherton et al., 2022]). We also added stress granule components G3BP1 ([Tourrière et al., […]]) and TDP-43 ([Colombrita et al., 2009]). These proteins were either co-expressed as fluorescently tagged proteins (Fig. S4 I) or, where antibodies were available, probed endogenously in cells that formed GFP-TNS3 condensates (Fig. 8 A).
as §1

[3] = test system: active β1 integrin, U2OS TNS3KO cells; experiment: β1 integrin-positive adhesions, U2OS TNS3KO cells; assay type: cell-based, human; settings: FN-coated, overnight; 9EG7
Experimental: (§3) Cells were fixed in 4% paraformaldehyde (PFA, Sigma-Aldrich), which had been prewarmed to 37°C for 15 min before being washed three times with PBS. For immunofluorescence staining, cells were permeabilized with 0.5% Triton X-100 (Sigma-Aldrich) at room temperature for 5 min before being washed three times with PBS. Blebbistatin (Tocris Bioscience) was diluted in dimethyl sulfoxide (Sigma-Aldrich) and used at a final concentration of 50 μM. […]
as §2

[4] = test system: active β1 integrin, TLNKO cells; experiment: 9EG7-positive (active β1 integrin) adhesions, TLNKO cells; assay type: cell-based; settings: co-expressed with GFP-TLN1, vs talin1 and vector control
Experimental: as §3, §2

NIH3T3 cells [5] = experiment: tensin3 condensate formation, NIH3T3 cells; assay type: cell-based, mouse; settings: n = 181 cells (WT), 168 cells (L702E)
Experimental: (§4) To establish a correlation between tensin3 expression and condensation formation, a maximum intensity Z-projection was performed on Z-stack images of NIH3T3 cells (step depth 0.2 μm). The integrated fluorescence intensity was measured by normalizing the mean pixel intensity of each cell to the average of all values in cells expressing mCh-TNS3. To measure the condensate coverage in NIH3T3 cells, the images were background-subtracted (rolling ball) and then thresholded. This was followed by the Analyse Particles function in FIJI/ImageJ to select round condensate structures (circularity 0.7–1.0) ([Bussi et al., 2023]; [Dumelie et al., 2024]) with a size larger than 0.1 μm^2. The same settings were applied to quantify the number of condensates in NIH3T3 and HFF cells.
The percentage of NIH3T3 cells transfected with mCh-TNS3 that form phase-separated condensates was quantified manually in images (610 × 499 μm) acquired with a 20× objective. To quantify the mean radius (R) of the condensates, the area covered by the condensates was divided by the number of condensates for each cell to obtain the mean size (A) of the condensates, followed by the formula of R = √(A/3.14).

NIH3T3 cells [6] = experiment: condensates on soft vs stiff PDMS, NIH3T3 cells; assay type: cell-based, mouse; settings: 1.5 kPa vs 28 kPa FN-coated PDMS, overnight
Experimental: Imaging dishes equipped with 40 µm-thick PDMS substrates (1.5 and 28 kPa) were purchased from ibidi. PDMS dishes were coated with 30 μg/ml FN for 1 h, followed by three washes with PBS. Dishes were incubated with DMEM for 10 min to equilibrate before cells were plated and incubated overnight at 37°C.
as §4

NIH3T3 cells [7] = experiment: adhesion stability under blebbistatin, NIH3T3 cells; assay type: cell-based, mouse; settings: blebbistatin 50 µM, 60 min; n = 64 (WT), 49 (L702E), 62 (ΔPTB), 71 (Cterm) cells
Experimental: as §3, §2

U2OS TNS3KO cells [8] = experiment: α5 integrin-positive FBs, rescue of TNS3KO cells; assay type: cell-based, human; settings: FN-coated, overnight; SNAKA51 antibody
Experimental: as §3, §2

B1: TNS3-WT: wild-type tensin3 (Homo sapiens), N-terminally labeled with GFP or mCherry, expressed in cells (protein, UniProt Q68CZ2 1-1445, looked up)
chain: MEEGHGLDLTYITERIIAVSFPAGCSEESYLHNLQEVTRMLKSKHGDNYLVLNLSEKRYDLTKLNPKIMDVGWPELHAPPLDKMCTICKAQESWLNSNLQHVVVIHCRGGKGRIGVVISSYMHFTNVSASADQALDRFAMKKFYDDKVSALMQPSQKRYVQFLSGLLSGSVKMNASPLFLHFVILHGTPNFDTGGVCRPFLKLYQAMQPVYTSGIYNVGPENPSRICIVIEPAQLLKGDVMVKCYHKKYRSATRDVIFRLQFHTGAVQGYGLVFGKEDLDNASKDDRFPDYGKVELVFSATPEKIQGSEHLYNDHGVIVDYNTTDPLIRWDSYENLSADGEVLHTQGPVDGSLYAKVRKKSSSDPGIPGGPQAIPATNSPDHSDHTLSVSSDSGHSTASARTDKTEERLAPGTRRGLSAQEKAELDQLLSGFGLEDPGSSLKEMTDARSKYSGTRHVVPAQVHVNGDAALKDRETDILDDEMPHHDLHSVDSLGTLSSSEGPQSAHLGPFTCHKSSQNSLLSDGFGSNVGEDPQGTLVPDLGLGMDGPYERERTFGSREPKQPQPLLRKPSVSAQMQAYGQSSYSTQTWVRQQQMVVAHQYSFAPDGEARLVSRCPADNPGLVQAQPRVPLTPTRGTSSRVAVQRGVGSGPHPPDTQQPSPSKAFKPRFPGDQVVNGAGPELSTGPSPGSPTLDIDQSIEQLNRLILELDPTFEPIPTHMNALGSQANGSVSPDSVGGGLRASSRLPDTGEGPSRATGRQGSSAEQPLGGRLRKLSLGQYDNDAGGQLPFSKCAWGKAGVDYAPNLPPFPSPADVKETMTPGYPQDLDIIDGRILSSKESMCSTPAFPVSPETPYVKTALRHPPFSPPEPPLSSPASQHKGGREPRSCPETLTHAVGMSESPIGPKSTMLRADASSTPSFQQAFASSCTISSNGPGQRRESSSSAERQWVESSPKPMVSLLGSGRPTGSPLSAEFSGTRKDSPVLSCFPPSELQAPFHSHELSLAEPPDSLAPPSSQAFLGFGTAPVGSGLPPEEDLGALLANSHGASPTPSIPLTATGAADNGFLSHNFLTVAPGHSSHHSPGLQGQGVTLPGQPPLPEKKRASEGDRSLGSVSPSSSGFSSPHSGSTISIPFPNVLPDFSKASEAASPLPDSPGDKLVIVKFVQDTSKFWYKADISREQAIAMLKDKEPGSFIVRDSHSFRGAYGLAMKVATPPPSVLQLNKKAGDLANELVRHFLIECTPKGVRLKGCSNEPYFGSLTALVCQHSITPLALPCKLLIPERDPLEEIAESSPQTAANSAAELLKQGAACNVWYLNSVEMESLTGHQAIQKALSITLVQEPPPVSTVVHFKVSAQGITLTDNQRKLFFRRHYPVNSVIFCALDPQDRKWIKDGPSSKVFGFVARKQGSATDNVCHLFAEHDPEQPASAIVNFVSKVMIGSPKKV
modifications: full-length N-terminal GFP or mCherry tag
notes: wild-type tensin3 (Homo sapiens), N-terminally labeled with GFP or mCherry, expressed in cells
rescue of cell spreading (TLNKO cells): did not rescue cell spreading | subcellular localization of construct under blebbistatin (U2OS TNS3KO cells [1]): remained in adhesion structures | adhesion stability under actomyosin inhibition (U2OS TNS3KO cells [1]; 60 min): remained present despite actomyosin inhibition | integrin activation, flow cytometry (β1 integrin, TLNKO cells; co-expressed with GFP-TLN1, vs mCh-vector, triplicate): increased integrin activation | rescue of integrin activation (β1 integrin, TLNKO cells; tensin3 expressed alone in TLNKO cells, 9EG7): did not rescue cell spreading (Fig. S3 A) or integrin activation | proteins detected in condensates (NIH3T3 cells [2]): talin1 and talin2, vinculin, tensin1, and LIMD1, together with the microtubule-targeting protein KANK1 and KANK2, and DLC1 and GIGYF1 | proteins absent from condensates (NIH3T3 cells [2]; listed as GFP-TNS3): kindlin2 and GIT1, which regulate membrane protrusion ([Böttcher et al., 2017]; [Manabe et al., 2002]), were absent; also recorded: negative for G3BP1, TDP-43 (Fig. S4 J), or tyrosine phosphorylation | rescue of adhesion formation [3]: fully rescued adhesion formation | fold change in 9EG7-positive adhesion sites [4]: fivefold increase in adhesion sites | Spearman's r, expression level vs condensate coverage (NIH3T3 cells [5]): 0.8773 | condensates on soft vs stiff substrate (NIH3T3 cells [6]): significant twofold increase | construct-positive adhesions after blebbistatin (NIH3T3 cells [7]): largely remain after blebbistatin treatment | α5 integrin-positive adhesions (U2OS TNS3KO cells [8]): α5 integrin-positive adhesions in the peripheral and central areas of the cells
